B1: TPR t1 (parent)
chain: GACCAAUCUGCCCUCAGAGCUCGAGAACAUCUUCGGAUGCAGAGGAGGCAGGCUUCGGUGGCGCGAUAGCGCCAACGUCCUCAACCUCCAAUGCAUCCCACCACAUGAUGAUGCCUGAAGAGCCUUGGUUUUUUG

Variants of: B1
Assay: polymerase ribozyme fitness, log enrichment relative to wild type (log ratio); higher = more active; in vitro selection for triplet polymerase activity
How it was run: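 PCR was used to build mutant libraries for each subunit of a heterodimeric triplet polymerase ribozyme, which were then transcribed. A single in vitro selection round, in triplicate, used a frozen incubation at −7 °C and recovered extended constructs by gel excision, streptavidin beads and RT-PCR. Fitness is the logarithm of genotype enrichment relative to wild-type enrichment, averaged over replicates with inverse-variance weights. The logarithm is base 2, and after Illumina sequencing only genotypes with ≥10 input reads and ≥1 read per output were kept.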

Row | Variant | polymerase ribozyme fitness (log ratio)
1 | G69U A111G | 1.89
2 | G69U C104A | -0.638
3 | G69U C104G | -4.34
4 | G69U A103C | -1.85
5 | G69C A95G | -1.13
6 | C70A C72G C102A C104A | -6.86
7 | C70U C80U G113C A119G | -3.1
8 | C70G A90C C114U A121G | -4.76
9 | C70A C86A | -2.39
10 | C70U C88G U125G | -1.36
11 | G69U A83U | -0.34
12 | G69U G71A A75U A103U C124G | -3.98
13 | C70U A75G | -0.621
14 | C70A A90G | -1.9
15 | C70G U78C C82G A91C | -5.79
16 | C70A C89U | -2.29
17 | C70A G120A | -0.62
18 | G69U G120A | 1.25
19 | G69U G120C | 1.2
20 | C70A G110A U133A | -3.64
21 | C70A U96A | -2.63
22 | C70U A90G | -0.454
23 | G69U U92A U130A | -1.5
24 | G69U C115G | -0.0637

Row | Variant | polymerase ribozyme fitness (log ratio)
25 | C70U C102U | -2.39
26 | C70U C82G C124A U130C | 0.602
27 | G69C C80U | -2.38
28 | G69C G113A C114A U125A U133A | -4.08
29 | G69C U106A | -1.14
30 | C70A A84U | -0.795
31 | G69C G122A | -1.53
32 | C70A U130G | -2.49
33 | G69U G93U U109C | -4.75
34 | C70U A90G C101A C123A | -1.13
35 | G69U C72U | -0.304
36 | C70U C97A G113C A119U G127C | -5.36
37 | G69U U87C C104A | -0.553
38 | C70A C114A A119U | -4.59
39 | C70A C80A U126C | -5.37
40 | G69U C94U | 1.7
41 | C70A G117U | -4.09
42 | C70A G128C | -4.69
43 | C70G G117U | -4.3
44 | C70U C82U A83C C89A G93A | -4.1
45 | G69U | 0.48
46 | G69C | -1.27
47 | C70G C104U G127C | -2.51
48 | C70U C104U | -0.703

Row | Variant | polymerase ribozyme fitness (log ratio)
49 | G69C G135A | -1.9
50 | G69C G135U | -2.29
51 | C70U C80A | -5.7
52 | G69C C88U | -1.17
53 | C70G C72U | -2.61
54 | G69U C76G U133A | -2.07
55 | C70G U129C | -3.02
56 | C70U C82A G113A | -1.84
57 | G69U C88A G127C U131A | -2.72
58 | G69U C102U A121U | -3.9
59 | G69U C86G | 0.0893
60 | C70A G93C | -3.33
61 | G69U U78G A91C U92G | -0.788
62 | C70A C85U G113A | -3.33
63 | G69C U78C U106A | -2.46
64 | G69U G113C G122C G127A U132A | -4.29
65 | C70G C94U | -3
66 | G69U U78A A91U A111C | -0.0328
67 | C70U C88A A119G U131A | 1.21
68 | G69C A121U | 0.369
69 | C70U C72U A121G | 1.38
70 | G69U A91U C99U U109G | -3.63
71 | G69C C115U | -1.75
72 | G69C C115A | -0.724

Row | Variant | polymerase ribozyme fitness (log ratio)
73 | G69A U116C | -3.45
74 | C70U A90G U106A | 0.297
75 | G69U U78G C79A U116A U129G | -5.04
76 | G69C U87A C123G | -0.694
77 | G69C C73A | -1.18
78 | G69C C115U G128A | -4.75
79 | G69U A118G | -0.0784
80 | C70A U109G | -5.72
81 | C70A U109C | -4.18
82 | C70A C104A | -3.24
83 | C70U C80A A95G A111G | -5.34
84 | G69U C98A | -2.07
85 | C70A C98U | -2.73
86 | C70A C101A | -2.43
87 | C70G C124U G128C | -3.97
88 | G69C C86G | -2.97
89 | G69C U92A | -5.61
90 | C70G U92C | -4.9
91 | G69U C102G | -2.76
92 | C70G C123A | -2.21
93 | G69U G71U | -0.811
94 | C70A C88G U125G | -3.18
95 | C70U A83C A108G | -2.22
96 | G69C U96G U106C | -3.19

Row | Variant | polymerase ribozyme fitness (log ratio)
97 | G69C C76U | -4.07
98 | C70U C82G | -0.344
99 | G69U C85A | -1.08
100 | C70G C115G | -3.68
101 | C70U C114A | -2.33
102 | C70G U130G U131G | -4.28
103 | C70G G135U | -3.49
104 | G69C C123A | -0.685
105 | C70A A91G | -2.74
106 | C70G C88U | -2.98
107 | C70G C88A | -4.74
108 | C70G G77A G93A A100U A105G U106A | -4.21
109 | C70G A83G | -4.15
110 | C70G A83C | -2.96
111 | C70A U78C G113A | -2.47
112 | C70U A95G | -0.166
113 | G69C U96A | -2.44
114 | C70U C79U G93U | -2.15
115 | G69U C104A G113C | -1.8
116 | G69A U106C C114A G120C | -3.12
117 | C70G C72G G110U | -6.42
118 | G69U U87A | 0.245
119 | C70G C79A A111C A119C | -8.17
120 | G69C G120A | -0.926

Row | Variant | polymerase ribozyme fitness (log ratio)
121 | C70G U126C | -3.27
122 | G69C C97A | -6.49
123 | G69U G93A A118G G135U | -0.918
124 | G69C G128C | -3.85
125 | G69U A103G U106A | -4.7
126 | G69C G113U | -4.51
127 | C70A C99U | -5.26
128 | C70G C85A U106A U130A | -4.47
129 | C70A U87G | -1.73
130 | G69U C82G C89A | -1.32
131 | C70U C97U C101U C102A | -4.84
132 | G69U G93C A95U A103U C114U | -3.98
133 | C70U C80A U87A | -5
134 | G69U A91C C114A C124U U126C | -2.19
135 | G69U C79G | -1.63
136 | G69U C86G C94U C124G G135A | 0.0412
137 | C70G U96C | -2.6
138 | C70A C115U | -2.84
139 | C70U A105G G113A | -4.28
140 | C70G G110A | -4.37
141 | C70A C114A | -2.64
142 | C70A U112A G113A | -2.47
143 | C70U A105C | -3.43
144 | G69U C80G | -2.32

Row | Variant | polymerase ribozyme fitness (log ratio)
145 | G69C A83U C99A C102A | -6.91
146 | C70U C97U C123G U126A | -0.00382
147 | G69U C70G C88U C115A | -0.11
148 | C70U C85U U126A | -3.11
149 | G69A U129G | -3.2
150 | G69U U132A | 0.176
151 | C70G G93C | -4.94
152 | C70G G93A | -4.33
153 | G69U U81C | 0.131
154 | G69U U78C A84G G122A G128A | -3.23
155 | C70A U81C C88A G120U | -3.19
156 | G69C U81C C88U U106C | -2.4
157 | C70G U130A | -3.16
158 | G69C A90C A91G A108C U112A | -6.22
159 | G69U C94U C101A | -0.271
160 | G69U C99G | -6.24
161 | G69U C99A | -3.23
162 | G69U C86G U96G C114A | -2.17
163 | C70A U78A C115U | -4.18
164 | C70G C86U G110U G113C | -6.29
165 | C70A C86G C102A | -4.88
166 | C70U A111G | 0.0643
167 | G69C C86A C94U C114U | -6.26

Reference: the RNAGym collection of RNA variant scans (doi:10.1073/pnas.2313332121)
